In article PMC3527552:

Tests used:
Settings in all cases: glycan lost; control: wild type
[1] = total cell lysate anti-HA Western blot
[2] = cell surface biotinylation, anti-HA Western blot
[3] = confocal immunofluorescence, colocalisation with calnexin
[4] = 0.1 μM E-3-S uptake, 2 min, HEK293

| Protein | expression_or_secretion [1] | expression_or_secretion, percent_of_wt [2] | localisation_or_trafficking [3] | other: transport activity [4] |
| --- | --- | --- | --- | --- |
| OATP1B1: N134/503/516Q (protein) parent chain: MDQNQHLNKTAEAQPSENKKTRYCNGLKMFLAALSLSFIAKTLGAIIMKSSIIHIERRFEISSSLVGFIDGSFEIGNLLVIVFVSYFGSKLHRPKLIGIGCFIMGIGGVLTALPHFFMGYYRYSKETNINSSENSTSTLSTCLINQILSLNRASPEIVGKGCLKESGSYMWIYVFMGNMLRGIGETPIVPLGLSYIDDFAKEGHSSLYLGILNAIAMIGPIIGFTLGSLFSKMYVDIGYVDLSTIRITPTDSRWVGAWWLNFLVSGLFSIISSIPFFFLPQTPNKPQKERKASLSLHVLETNDEKDQTANLTNQGKNITKNVTGFFQSFKSILTNPLYVMFVLLTLLQVSSYIGAFTYVFKYVEQQYGQPSSKANILLGVITIPIFASGMFLGGYIIKKFKLNTVGIAKFSCFTAVMSLSFYLLYFFILCENKSVAGLTMTYDGNNPVTSHRDVPLSYCNSDCNCDESQWEPVCGNNGITYISPCLAGCKSSSGNKKPIVFYNCSCLEVTGLQNRNYSAHLGECPRDDACTRKFYFFVAIQVLNLFFSALGGTSHVMLIVKIVQPELKSLALGFHSMVIRALGGILAPIYFGALIDTTCIKWSTNNCGTRGSCRTYNSTSFSRVYLGLSSMLRVSSLVLYIILIYAMKKKYQEKDINASENGSVMDEANLESLNKNKHFVPSAGADSETHC | decreases | decreases | changes | – |
| OATP1B1: N503Q (protein) parent chain: MDQNQHLNKTAEAQPSENKKTRYCNGLKMFLAALSLSFIAKTLGAIIMKSSIIHIERRFEISSSLVGFIDGSFEIGNLLVIVFVSYFGSKLHRPKLIGIGCFIMGIGGVLTALPHFFMGYYRYSKETNINSSENSTSTLSTCLINQILSLNRASPEIVGKGCLKESGSYMWIYVFMGNMLRGIGETPIVPLGLSYIDDFAKEGHSSLYLGILNAIAMIGPIIGFTLGSLFSKMYVDIGYVDLSTIRITPTDSRWVGAWWLNFLVSGLFSIISSIPFFFLPQTPNKPQKERKASLSLHVLETNDEKDQTANLTNQGKNITKNVTGFFQSFKSILTNPLYVMFVLLTLLQVSSYIGAFTYVFKYVEQQYGQPSSKANILLGVITIPIFASGMFLGGYIIKKFKLNTVGIAKFSCFTAVMSLSFYLLYFFILCENKSVAGLTMTYDGNNPVTSHRDVPLSYCNSDCNCDESQWEPVCGNNGITYISPCLAGCKSSSGNKKPIVFYNCSCLEVTGLQNRNYSAHLGECPRDDACTRKFYFFVAIQVLNLFFSALGGTSHVMLIVKIVQPELKSLALGFHSMVIRALGGILAPIYFGALIDTTCIKWSTNNCGTRGSCRTYNSTSFSRVYLGLSSMLRVSSLVLYIILIYAMKKKYQEKDINASENGSVMDEANLESLNKNKHFVPSAGADSETHC | – | no change | – | no change |
| OATP1B1: N134/516Q (protein) parent chain: MDQNQHLNKTAEAQPSENKKTRYCNGLKMFLAALSLSFIAKTLGAIIMKSSIIHIERRFEISSSLVGFIDGSFEIGNLLVIVFVSYFGSKLHRPKLIGIGCFIMGIGGVLTALPHFFMGYYRYSKETNINSSENSTSTLSTCLINQILSLNRASPEIVGKGCLKESGSYMWIYVFMGNMLRGIGETPIVPLGLSYIDDFAKEGHSSLYLGILNAIAMIGPIIGFTLGSLFSKMYVDIGYVDLSTIRITPTDSRWVGAWWLNFLVSGLFSIISSIPFFFLPQTPNKPQKERKASLSLHVLETNDEKDQTANLTNQGKNITKNVTGFFQSFKSILTNPLYVMFVLLTLLQVSSYIGAFTYVFKYVEQQYGQPSSKANILLGVITIPIFASGMFLGGYIIKKFKLNTVGIAKFSCFTAVMSLSFYLLYFFILCENKSVAGLTMTYDGNNPVTSHRDVPLSYCNSDCNCDESQWEPVCGNNGITYISPCLAGCKSSSGNKKPIVFYNCSCLEVTGLQNRNYSAHLGECPRDDACTRKFYFFVAIQVLNLFFSALGGTSHVMLIVKIVQPELKSLALGFHSMVIRALGGILAPIYFGALIDTTCIKWSTNNCGTRGSCRTYNSTSFSRVYLGLSSMLRVSSLVLYIILIYAMKKKYQEKDINASENGSVMDEANLESLNKNKHFVPSAGADSETHC | – | no change | – | no change |
| OATP1B1: N134Q (protein) parent chain: MDQNQHLNKTAEAQPSENKKTRYCNGLKMFLAALSLSFIAKTLGAIIMKSSIIHIERRFEISSSLVGFIDGSFEIGNLLVIVFVSYFGSKLHRPKLIGIGCFIMGIGGVLTALPHFFMGYYRYSKETNINSSENSTSTLSTCLINQILSLNRASPEIVGKGCLKESGSYMWIYVFMGNMLRGIGETPIVPLGLSYIDDFAKEGHSSLYLGILNAIAMIGPIIGFTLGSLFSKMYVDIGYVDLSTIRITPTDSRWVGAWWLNFLVSGLFSIISSIPFFFLPQTPNKPQKERKASLSLHVLETNDEKDQTANLTNQGKNITKNVTGFFQSFKSILTNPLYVMFVLLTLLQVSSYIGAFTYVFKYVEQQYGQPSSKANILLGVITIPIFASGMFLGGYIIKKFKLNTVGIAKFSCFTAVMSLSFYLLYFFILCENKSVAGLTMTYDGNNPVTSHRDVPLSYCNSDCNCDESQWEPVCGNNGITYISPCLAGCKSSSGNKKPIVFYNCSCLEVTGLQNRNYSAHLGECPRDDACTRKFYFFVAIQVLNLFFSALGGTSHVMLIVKIVQPELKSLALGFHSMVIRALGGILAPIYFGALIDTTCIKWSTNNCGTRGSCRTYNSTSFSRVYLGLSSMLRVSSLVLYIILIYAMKKKYQEKDINASENGSVMDEANLESLNKNKHFVPSAGADSETHC | – | no change | – | no change |
| OATP1B1: N134/617Q (protein) parent chain: MDQNQHLNKTAEAQPSENKKTRYCNGLKMFLAALSLSFIAKTLGAIIMKSSIIHIERRFEISSSLVGFIDGSFEIGNLLVIVFVSYFGSKLHRPKLIGIGCFIMGIGGVLTALPHFFMGYYRYSKETNINSSENSTSTLSTCLINQILSLNRASPEIVGKGCLKESGSYMWIYVFMGNMLRGIGETPIVPLGLSYIDDFAKEGHSSLYLGILNAIAMIGPIIGFTLGSLFSKMYVDIGYVDLSTIRITPTDSRWVGAWWLNFLVSGLFSIISSIPFFFLPQTPNKPQKERKASLSLHVLETNDEKDQTANLTNQGKNITKNVTGFFQSFKSILTNPLYVMFVLLTLLQVSSYIGAFTYVFKYVEQQYGQPSSKANILLGVITIPIFASGMFLGGYIIKKFKLNTVGIAKFSCFTAVMSLSFYLLYFFILCENKSVAGLTMTYDGNNPVTSHRDVPLSYCNSDCNCDESQWEPVCGNNGITYISPCLAGCKSSSGNKKPIVFYNCSCLEVTGLQNRNYSAHLGECPRDDACTRKFYFFVAIQVLNLFFSALGGTSHVMLIVKIVQPELKSLALGFHSMVIRALGGILAPIYFGALIDTTCIKWSTNNCGTRGSCRTYNSTSFSRVYLGLSSMLRVSSLVLYIILIYAMKKKYQEKDINASENGSVMDEANLESLNKNKHFVPSAGADSETHC | – | no change | – | no change |
| OATP1B1: N516Q (protein) parent chain: MDQNQHLNKTAEAQPSENKKTRYCNGLKMFLAALSLSFIAKTLGAIIMKSSIIHIERRFEISSSLVGFIDGSFEIGNLLVIVFVSYFGSKLHRPKLIGIGCFIMGIGGVLTALPHFFMGYYRYSKETNINSSENSTSTLSTCLINQILSLNRASPEIVGKGCLKESGSYMWIYVFMGNMLRGIGETPIVPLGLSYIDDFAKEGHSSLYLGILNAIAMIGPIIGFTLGSLFSKMYVDIGYVDLSTIRITPTDSRWVGAWWLNFLVSGLFSIISSIPFFFLPQTPNKPQKERKASLSLHVLETNDEKDQTANLTNQGKNITKNVTGFFQSFKSILTNPLYVMFVLLTLLQVSSYIGAFTYVFKYVEQQYGQPSSKANILLGVITIPIFASGMFLGGYIIKKFKLNTVGIAKFSCFTAVMSLSFYLLYFFILCENKSVAGLTMTYDGNNPVTSHRDVPLSYCNSDCNCDESQWEPVCGNNGITYISPCLAGCKSSSGNKKPIVFYNCSCLEVTGLQNRNYSAHLGECPRDDACTRKFYFFVAIQVLNLFFSALGGTSHVMLIVKIVQPELKSLALGFHSMVIRALGGILAPIYFGALIDTTCIKWSTNNCGTRGSCRTYNSTSFSRVYLGLSSMLRVSSLVLYIILIYAMKKKYQEKDINASENGSVMDEANLESLNKNKHFVPSAGADSETHC | – | no change | – | no change |
| OATP1B1: N134/503Q (protein) parent chain: MDQNQHLNKTAEAQPSENKKTRYCNGLKMFLAALSLSFIAKTLGAIIMKSSIIHIERRFEISSSLVGFIDGSFEIGNLLVIVFVSYFGSKLHRPKLIGIGCFIMGIGGVLTALPHFFMGYYRYSKETNINSSENSTSTLSTCLINQILSLNRASPEIVGKGCLKESGSYMWIYVFMGNMLRGIGETPIVPLGLSYIDDFAKEGHSSLYLGILNAIAMIGPIIGFTLGSLFSKMYVDIGYVDLSTIRITPTDSRWVGAWWLNFLVSGLFSIISSIPFFFLPQTPNKPQKERKASLSLHVLETNDEKDQTANLTNQGKNITKNVTGFFQSFKSILTNPLYVMFVLLTLLQVSSYIGAFTYVFKYVEQQYGQPSSKANILLGVITIPIFASGMFLGGYIIKKFKLNTVGIAKFSCFTAVMSLSFYLLYFFILCENKSVAGLTMTYDGNNPVTSHRDVPLSYCNSDCNCDESQWEPVCGNNGITYISPCLAGCKSSSGNKKPIVFYNCSCLEVTGLQNRNYSAHLGECPRDDACTRKFYFFVAIQVLNLFFSALGGTSHVMLIVKIVQPELKSLALGFHSMVIRALGGILAPIYFGALIDTTCIKWSTNNCGTRGSCRTYNSTSFSRVYLGLSSMLRVSSLVLYIILIYAMKKKYQEKDINASENGSVMDEANLESLNKNKHFVPSAGADSETHC | – | no change | – | no change |
| OATP1B1: N134/432Q (protein) parent chain: MDQNQHLNKTAEAQPSENKKTRYCNGLKMFLAALSLSFIAKTLGAIIMKSSIIHIERRFEISSSLVGFIDGSFEIGNLLVIVFVSYFGSKLHRPKLIGIGCFIMGIGGVLTALPHFFMGYYRYSKETNINSSENSTSTLSTCLINQILSLNRASPEIVGKGCLKESGSYMWIYVFMGNMLRGIGETPIVPLGLSYIDDFAKEGHSSLYLGILNAIAMIGPIIGFTLGSLFSKMYVDIGYVDLSTIRITPTDSRWVGAWWLNFLVSGLFSIISSIPFFFLPQTPNKPQKERKASLSLHVLETNDEKDQTANLTNQGKNITKNVTGFFQSFKSILTNPLYVMFVLLTLLQVSSYIGAFTYVFKYVEQQYGQPSSKANILLGVITIPIFASGMFLGGYIIKKFKLNTVGIAKFSCFTAVMSLSFYLLYFFILCENKSVAGLTMTYDGNNPVTSHRDVPLSYCNSDCNCDESQWEPVCGNNGITYISPCLAGCKSSSGNKKPIVFYNCSCLEVTGLQNRNYSAHLGECPRDDACTRKFYFFVAIQVLNLFFSALGGTSHVMLIVKIVQPELKSLALGFHSMVIRALGGILAPIYFGALIDTTCIKWSTNNCGTRGSCRTYNSTSFSRVYLGLSSMLRVSSLVLYIILIYAMKKKYQEKDINASENGSVMDEANLESLNKNKHFVPSAGADSETHC | – | no change | – | no change |
